B1: MYO5 (protein, UniProt Q04439 1-1219, looked up)
Myosin-5: MAILKRGARKKVHQEPAKRSANIKKATFDSSKKKEVGVSDLTLLSKISDEAINENLKKRFLNATIYTYIGHVLISVNPFRDLGIYTDAVMNEYKGKNRLEVPPHVFAIAESMYYNMKSYNENQCVIISGESGAGKTEAAKRIMQYIAAASSTHTESIGKIKDMVLATNPLLESFGCAKTLRNNNSSRHGKYLEIKFNNQFEPCAGNITNYLLEKQRVVSQIKNERNFHIFYQFTKGASDAYRQTFGVQKPEQYVYTAAAGCISAETIDDLQDYQETLKAMRVIGLGQEEQDQIFRMLAAILWIGNVSFIENEEGNAQVRDTSVTDFVAYLLQIDSQLLIKSLVERIMETNHGMKRGSVYHVPLNIVQADAVRDALAKAIYNNLFDWIVSRVNKSLQAFPGAEKSIGILDIYGFEIFEHNSFEQICINYVNEKLQQIFIQLTLKSEQETYEREKIQWTPIKYFDNKVVCDLIEARRPPGIFAAMNDSVATAHADSNAADQAFAQRLNLFTTNPHFDLRSNKFVIKHYAGDVTYDIDGITDKNKDQLQKDLVELIGTTTNTFLATIFPDTVDRESKRRPPTAGDKIIKSANDLVETLSKAQPSYIRTIKPNETKSPNDYDDRQVLHQIKYLGLQENVRIRRAGFAYRQVFEKFVERFYLLSPHCSYAGDYTWQGDTLDAVKYILQDSSIPQQEYQLGVTSVFIKTPETLFALEHMRDRYWHNMAARIQRAWRRFLQRRIDAATKIQRTIRERKEGNKYEKLRDYGTKVLGGRKERRSMSLLGYRAFMGDYLSCNESKSKGAYIKRQVSIKEKVIFSIHGEALHTKFGRSAQRLKKTFLLTPTTLYIVGQTLVQNAMTYTQDYKIDVRNIQAVSLTNLQDDWVAIKLASSGQPDPLINTYFKTELITHLKRLNDKIQIKIGSAIEYQKKPGKLHSVKCQINESAPKYGDIYKSSTISVRRGNPPNSQVHKKPRKKSSISSGYHASSSQATRRPVSIAAAQHVPTAPASRHSKKPAPPPPGMQNKAATRRSVPNPASTLTASQSNARPSPPTAATRATPAATPAAAAMGSGRQANIPPPPPPPPPSSKPKEPMFEAAYDFPGSGSPSELPLKKGDVIYITREEPSGWSLGKLLDGSKEGWVPTAYMKPHSGNNNIPTPPQNRDVPKPVLNSVQHDNTSANVIPAAAQASLGDGLANALAARANKMRLESDDEEANEDEEEDDW
B2: MYO3 (protein, UniProt P36006 1-1272, looked up)
Myosin-3: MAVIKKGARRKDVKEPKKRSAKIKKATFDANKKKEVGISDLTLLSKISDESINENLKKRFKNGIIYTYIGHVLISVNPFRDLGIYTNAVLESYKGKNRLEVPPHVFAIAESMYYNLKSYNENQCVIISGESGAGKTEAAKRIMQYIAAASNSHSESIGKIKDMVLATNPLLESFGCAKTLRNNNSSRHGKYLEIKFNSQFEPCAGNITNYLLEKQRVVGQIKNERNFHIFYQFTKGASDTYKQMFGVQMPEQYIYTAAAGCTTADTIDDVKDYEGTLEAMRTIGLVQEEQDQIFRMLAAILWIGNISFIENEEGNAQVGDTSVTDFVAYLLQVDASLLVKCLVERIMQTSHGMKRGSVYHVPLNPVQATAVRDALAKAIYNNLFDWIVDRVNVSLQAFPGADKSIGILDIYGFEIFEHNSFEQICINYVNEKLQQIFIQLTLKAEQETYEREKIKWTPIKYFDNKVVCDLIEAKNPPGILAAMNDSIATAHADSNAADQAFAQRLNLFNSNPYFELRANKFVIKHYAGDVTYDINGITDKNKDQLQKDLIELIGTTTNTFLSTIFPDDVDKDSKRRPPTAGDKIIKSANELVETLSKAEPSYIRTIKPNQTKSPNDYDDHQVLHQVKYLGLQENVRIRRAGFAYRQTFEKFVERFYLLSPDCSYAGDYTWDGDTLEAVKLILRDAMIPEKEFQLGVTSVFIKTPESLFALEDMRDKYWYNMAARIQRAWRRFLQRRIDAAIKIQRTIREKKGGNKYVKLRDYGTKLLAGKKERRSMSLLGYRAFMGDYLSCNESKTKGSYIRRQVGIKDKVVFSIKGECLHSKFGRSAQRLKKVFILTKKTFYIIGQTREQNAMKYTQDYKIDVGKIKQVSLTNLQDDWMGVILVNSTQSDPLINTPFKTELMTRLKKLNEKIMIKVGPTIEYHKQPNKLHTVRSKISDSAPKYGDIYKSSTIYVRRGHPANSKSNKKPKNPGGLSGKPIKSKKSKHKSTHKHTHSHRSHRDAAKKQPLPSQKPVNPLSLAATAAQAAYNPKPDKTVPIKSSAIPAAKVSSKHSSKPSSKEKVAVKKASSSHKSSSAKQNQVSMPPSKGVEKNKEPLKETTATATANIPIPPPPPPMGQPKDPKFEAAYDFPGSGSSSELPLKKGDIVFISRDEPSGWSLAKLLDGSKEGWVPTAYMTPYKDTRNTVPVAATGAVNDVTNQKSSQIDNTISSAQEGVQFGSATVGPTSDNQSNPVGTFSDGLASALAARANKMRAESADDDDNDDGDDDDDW
B3: BOI1 (protein, UniProt P38041 1-980, looked up)
BEM1-interacting protein 1: MSLEGNTLGKGAKSFPLYIAVNQYSKRMEDELNMKPGDKIKVITDDGEYNDGWYYGRNLRTKEEGLYPAVFTKRIAIEKPENLHKSPTQESGNSGVKYGNLNDSASNIGKVSSHQQENRYTSLKSTMSDIDKALEELRSGSVEQEVSKSPTRVPEVSTPQLQDEQTLIQEKTRNEENTTHDSLFSSTADLNLSSESLKNISKSNISTKSLEPSSESVRQLDLKMAKSWSPEEVTDYFSLVGFDQSTCNKFKEHQVSGKILLELELEHLKELEINSFGIRFQIFKEIRNIKSAIDSSSNKLDADYSTFAFENQAAQLMPAATVNRDEIQQQISSKCNKLSSESSDRKSSSVTTELQRPSSVVVNPNFKLHDPAEQILDMTEVPNLFADKDIFESPGRAPKPPSYPSPVQPPQSPSFNNRYTNNNARFPPQTTYPPKNKNPTVYSNGLIPNSSTSSDNSTGKFKFPAMNGHDSNSRKTTLTSATIPSINTVNTDESLPAISNISSNATSHHPNRNSVVYNNHKRTESGSSFVDLFNRISMLSPVKSSFDEEETKQPSKASRAVFDSARRKSSYGHSRDASLSEMKKHRRNSSILSFFSSKSQSNPTSPTKQTFTIDPAKMTSHSRSQSNSYSHARSQSYSHSRKHSLVTSPLKTSLSPINSKSNIALAHSETPTSSNNKEAVSQPSEGKHKHKHKHKSKHKHKNSSSKDGSSEEKSKKKLFSSTKESFVGSKEFKRSPSELTQKSTKSILPRSNAKKQQTSAFTEGIRSITAKESMQTADCSGWMSKKGTGAMGTWKQRFFTLHGTRLSYFTNTNDEKERGLIDITAHRVLPASDDDRLISLYAASLGKGKYCFKLVPPQPGSKKGLTFTEPRVHYFAVENKSEMKAWLSAIIKATIDIDTSVPVISSYATPTIPLSKAQTLLEEARLQTQLRDAEEEEGRDQFGWDDTQNKRNSNYPIEQDQFETSDYLESSAFEYPGGRL
B4: PIN3 (protein, UniProt Q06449 2-215, looked up)
[PSI+] inducibility protein 3: SASLINRSLTNIRTELDFLKGSNVISNDVYDQINKSLPAKWDPANAPRNASPASLEYVEALYQFDPQQDGDLGLKPGDKVQLLEKLSPEWYKGSCNGRTGIFPANYVKPAFSGSNGPSNLPPPPQYKAQELQQIPTQNSAASSYQQQPFPPPSTNYYQQPQQQPQQAPPPQQQQQQQQHQSSHSHLKSFGSKLGNAAIFGAGASIGSDIVNNIF
B5: PEX13 (protein, UniProt P80667 1-386, looked up)
Peroxisomal membrane protein …: MSSTAVPRPKPWETSASLEEPQRNAQSLSAMMTSNQQDSRPTEESNNSNSASESAPEVLPRPAALNSSGTYGESNTIPGIYGNSNYGIPYDNNPYSMNSIYGNSIGRYGYGGSYYGNNYGSFYGGGYGAGAGYGMNNGSGLGESTKATFQLIESLIGAVTGFAQMLESTYMATHNSFFTMISVAEQFGNLKEMLGSFFGIFAIMKFLKKILYRATKGRLGIPPKNFAESEGSKNKLIEDFQKFNDSGTINSNEKATRRKISWKPLLFFLMAVFGFPYLLNKFITKLQTSGTIRASQGNGSEPIDPSKLEFARALYDFVPENPEMEVALKKGDLMAILSKKDPLGRDSDWWKVRTKNGNIGYIPYNYIEIIKRRKKIEHVDDETRTH
B6: SHO1 (protein, UniProt P40073 1-367, looked up)
High osmolarity signaling …: MSISSKIRPTPRKPSRMATDHSFKMKKFYADPFAISSISLAIVSWVIAIGGSISSASTNESFPRFTWWGIVYQFLIICSLMLFYCFDLVDHYRIFITTSIAVAFVYNTNSATNLVYADGPKKAAASAGVILLSIINLIWILYYGGDNASPTNRWIDSFSIKGIRPSPLENSLHRARRRGNRNTTPYQNNVYNDAIRDSGYATQFDGYPQQQPSHTNYVSSTALAGFENTQPNTSEAVNLHLNTLQQRINSASNAKETNDNSNNQTNTNIGNTFDTDFSNGNTETTMGDTLGLYSDIGDDNFIYKAKALYPYDADDDDAYEISFEQNEILQVSDIEGRWWKARRANGETGIIPSNYVQLIDGPEEMHR

What follows are molecules tested on 575 putative partners (preys) of 22 WT SH3-containing proteins (assay: DHFR-PCA on solid medium, WT and SH3-deleted baits (Fig. 1B)). Conditions: number of PPIs; SH3 domain in its own protein; DHFR-PCA; Fig2D,S2F.
Assay type: cell-based, Saccharomyces cerevisiae
Summary of the method: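 Interactions scored by DHFR protein-fragment complementation on solid medium using robotic pinning; preys (DHFR F[3] fusions) arrayed in duplicate with control borders. Baits carried C-terminal DHFR F[1,2]-FLAG tags, tested as wild type and as SH3-deleted versions carrying a flexible Gly/Ser stuffer.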

Q: B1 was tested. Which “SH3-dependent PPIs” value did it give?
A: 19

Q: For B2, which “SH3-dependent PPIs” value is on record?
A: 17

Q: Which “SH3-dependent PPIs” value does the source give for B3 here?
A: 3

Q: How did the “SH3-dependent PPIs” value turn out when B4 was run?
A: 13

Q: B5 was tested. Which “SH3-dependent PPIs” value did it give?
A: 1

Q: For B6, which “SH3-dependent PPIs” value is on record?
A: 2

Source: publication PMC7954794, “Protein context shapes the specificity of SH3 domain-mediated interactions in vivo” (Nature Communications, 2021)
